B1: Nibrin (Homo sapiens), O60934 (parent)
chain: MWKLLPAAGPAGGEPYRLLTGVEYVVGRKNCAILIENDQSISRNHAVLTANFSVTNLSQTDEIPVLTLKDNSKYGTFVNEEKMQNGFSRTLKSGDGITFGVFGSKFRIEYEPLVACSSCLDVSGKTALNQAILQLGGFTVNNWTEECTHLVMVSVKVTIKTICALICGRPIVKPEYFTEFLKAVESKKQPPQIESFYPPLDEPSIGSKNVDLSGRQERKQIFKGKTFIFLNAKQHKKLSSAVVFGGGEARLITEENEEEHNFFLAPGTCVVDTGITNSQTLIPDCQKKWIQSIMDMLQRQGLRPIPEAEIGLAVIFMTTKNYCDPQGHPSTGLKTTTPGPSLSQGVSVDEKLMPSAPVNTTTYVADTESEQADTWDLSERPKEIKVSKMEQKFRMLSQDAPTVKESCKTSSNNNSMVSNTLAKMRIPNYQLSPTKLPSINKSKDRASQQQQTNSIRNYFQPSTKKRERDEENQEMSSCKSARIETSCSLLEQTQPATPSLWKNKEQHLSENEPVDTNSDNNLFTDTDLKSIVKNSASKSHAAEKLRSNKKREMDDVAIEDEVLEQLFKDTKPELEIDVKVQKQEEDVNVRKRPRMDIETNDTFSDEAVPESSKISQENEIGKKRELKEDSLWSAKEISNNDKLQDDSEMLPKKLLLTEFRSLVIKNSTSRNPSGINDDYGQLKNFKKFKKVTYPGAGKLPHIIGGSDLIAHHARKNTELEEWLRQEMEVQNQHAKEESLADDLFRYNPYLKRRR
partner: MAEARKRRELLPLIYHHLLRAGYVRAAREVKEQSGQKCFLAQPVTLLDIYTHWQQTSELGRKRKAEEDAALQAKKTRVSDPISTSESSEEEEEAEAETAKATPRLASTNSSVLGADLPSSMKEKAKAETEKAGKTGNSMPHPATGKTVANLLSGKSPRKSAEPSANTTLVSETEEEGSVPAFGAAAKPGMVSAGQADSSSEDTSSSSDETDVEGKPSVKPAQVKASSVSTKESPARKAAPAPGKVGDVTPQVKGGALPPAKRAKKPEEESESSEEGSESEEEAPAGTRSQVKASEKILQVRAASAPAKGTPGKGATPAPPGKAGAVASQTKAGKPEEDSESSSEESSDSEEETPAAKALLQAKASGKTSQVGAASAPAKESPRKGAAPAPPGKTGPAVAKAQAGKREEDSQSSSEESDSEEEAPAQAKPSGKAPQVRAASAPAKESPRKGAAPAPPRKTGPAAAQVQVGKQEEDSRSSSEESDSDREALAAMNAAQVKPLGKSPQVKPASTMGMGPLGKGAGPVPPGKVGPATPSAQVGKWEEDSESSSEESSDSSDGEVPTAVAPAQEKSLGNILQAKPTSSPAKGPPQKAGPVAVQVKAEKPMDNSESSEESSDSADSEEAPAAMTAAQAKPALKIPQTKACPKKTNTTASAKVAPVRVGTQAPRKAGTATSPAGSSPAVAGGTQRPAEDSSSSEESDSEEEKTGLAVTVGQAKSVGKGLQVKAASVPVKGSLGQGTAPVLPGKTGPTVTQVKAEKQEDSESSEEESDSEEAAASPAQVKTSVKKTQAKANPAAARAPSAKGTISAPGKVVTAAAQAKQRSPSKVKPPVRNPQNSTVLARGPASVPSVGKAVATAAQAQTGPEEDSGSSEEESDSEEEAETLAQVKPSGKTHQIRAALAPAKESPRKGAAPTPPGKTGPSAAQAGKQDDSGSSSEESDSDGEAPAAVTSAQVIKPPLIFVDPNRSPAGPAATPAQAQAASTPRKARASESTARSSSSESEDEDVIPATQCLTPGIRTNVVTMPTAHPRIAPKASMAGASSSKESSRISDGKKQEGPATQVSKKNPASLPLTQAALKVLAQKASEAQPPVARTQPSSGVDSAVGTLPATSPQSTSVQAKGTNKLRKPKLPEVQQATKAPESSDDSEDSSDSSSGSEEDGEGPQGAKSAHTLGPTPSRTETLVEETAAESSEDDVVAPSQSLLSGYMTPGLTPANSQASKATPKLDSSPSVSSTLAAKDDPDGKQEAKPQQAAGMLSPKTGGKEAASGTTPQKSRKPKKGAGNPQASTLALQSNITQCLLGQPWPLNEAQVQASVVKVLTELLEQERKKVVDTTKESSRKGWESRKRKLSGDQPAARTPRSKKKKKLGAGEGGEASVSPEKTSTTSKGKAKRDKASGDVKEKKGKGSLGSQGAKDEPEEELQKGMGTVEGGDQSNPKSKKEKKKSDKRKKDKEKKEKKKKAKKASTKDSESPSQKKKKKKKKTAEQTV
B2: Treacle protein (Homo sapiens), Q13428 (parent)
chain: B1 partner

Variants of: B1
Conditions: with tcof_human TCOF1, Q13428

Variant | effect of a mutation on the interaction
R28A;K160M | disrupting interaction strength

Variants of: B1
Conditions: with tcof_human TCOF1, Q13428
Remark: another data set of the same source

Variant | effect of a mutation on the interaction
R28A | disrupting interaction strength

Variants of: B2
Conditions: with nbn_human NBN

Variant | effect of a mutation on the interaction
T210A | disrupting interaction strength

From IntAct's records for PubMed 25064736
